# Measured values from patent publication US20080108569A1, “Compositions and Methods for Treating Diseases Associated With Phlpp” (The Regents of the University of California, priority 2005, published 2008).
# B1: HA-PHLPP2: HA-tagged full length human PHLPP2 expressed from pcDNA3HA vector; PHLPP2 protein is SEQ ID NO: 4 (protein, listed as Homo sapiens)
# chain: MKRNGSRNCLNRRSRFGSRERDWLREDVKRGCVYLYGADTTTATTTTTTSSSSSSSSSSSDLHLVLCTVETPASEICAGEGRESLYLQLHGDLVRRLEPTERPLQIVYDYLSRLGFDDPVRIQEEATNPDLGCMIRFYGEKPCHMDRLDRILLSGIYNVRKGKTQLHKWAERLVVLCGTCLIVSSVKDCQTGKMHILPLVGGKIEEVKRRQYSLAFSSAGAQAQTYHVSFETLAEYQRWQRQASKVVSQRISTVDLSCYSLEEVPEHLFYSQDITYLNLRHNFMQLERPGGLDTLYKFSQLKGLNLSHNKLGLFPILLCEISTLTELNLSCNGFHDLPSQIGNLLNLQTLCLDGNFLTTLPEELGNLQQLSSLGISFNNFSQIPEVYEKLTMLDRVVMAGNCLEVLNLGVLNRMNHIKHVDLRMNHLKTMVIENLEGNKHITHVDLRDNRLTDLDLSSLCSLEQLHCGRNQLRELTLSGFSLRTLYASSNRLTAVNVYPVPSLLTFLDLSRNLLECVPDWACEAKKIEVLDVSYNLLTEVPVRILSSLSLRKLMLGHNHVQNLPTLVEHIPLEVLDLQHNALTRLPDTLFSKALNLRYLNASANSLESLPSACTGEESLSMLQLLYLTNNLLTDQCIPVLVGHLHLRILHLANNQLQTFPASKLNKLEQLEELNLSGNKLKTIPTTIANCKRLHTLVAHSNNISIFPEILQLPQIQFVDLSCNDLTEILIPEALPATLQDLDLTGNTNLVLEHKTLDIFSHITTLKIDQKPLPTTDSTVTSTFWSHGLAEMAGQRNKLCVSALAMDSFAEGVGAVYGMFDGDRNEELPRLLQCTMADVLLEEVQQSTNDTVFMANTFLVSHRKLGMAGQKLGSSALLCYIRPDTADPASSFSLTVANVGTCQAVLCRGGKPVPLSKVFSLEQDPEEAQRVKDQKAIITEDNKVNGVTCCTRMLGCTYLYPWILPKPHISSTPLTIQDELLILGNKALWEHLSYTEAVNAVRHVQDPLAAAKKLCTLAQSYGCQDNVGAMVVYLNIGEEGCTCEMNGLTLPGPVGFASTTTIKDAPKPATPSSSSGIASEFSSEMSTSEVSSEVGSTASDEHNAGGLDTALLPRPERRCSLHPTPTSGLFQRQPSSATFSSNQSDNGLDSDDDQPVEGVITNGSKVEVEVDIHCCRGRDLENSPPLIESSPTLCSEEHARGSCFGIRRQNSVNSGMLLPMSKDRMELQKSPSTSCLYGKKLSNGSIVPLEDSLNLIEVATEVPKRKTGYFAAPTQMEPEDQFVVPHDLEEEVKEQMKQHQDSRLEPEPHEEDRTEPPEEFDTAL
# modifications: HA tag
# What was measured:
# [1] = biological target: T1, Akt (Homo sapiens, UniProt P31749); assay: dephosphorylation assay with immunoprecipitated full-length HA-PHLPP2 and pure Akt; format: biochemical
# T1 construct: 6His; made in house; host or cells: Akt1: baculovirus-infected Sf21 cells; HA-PHLPP2: transfected 293T cells, immunoprecipitated with HA antibody
# T1 sequence (P31749 whole entry): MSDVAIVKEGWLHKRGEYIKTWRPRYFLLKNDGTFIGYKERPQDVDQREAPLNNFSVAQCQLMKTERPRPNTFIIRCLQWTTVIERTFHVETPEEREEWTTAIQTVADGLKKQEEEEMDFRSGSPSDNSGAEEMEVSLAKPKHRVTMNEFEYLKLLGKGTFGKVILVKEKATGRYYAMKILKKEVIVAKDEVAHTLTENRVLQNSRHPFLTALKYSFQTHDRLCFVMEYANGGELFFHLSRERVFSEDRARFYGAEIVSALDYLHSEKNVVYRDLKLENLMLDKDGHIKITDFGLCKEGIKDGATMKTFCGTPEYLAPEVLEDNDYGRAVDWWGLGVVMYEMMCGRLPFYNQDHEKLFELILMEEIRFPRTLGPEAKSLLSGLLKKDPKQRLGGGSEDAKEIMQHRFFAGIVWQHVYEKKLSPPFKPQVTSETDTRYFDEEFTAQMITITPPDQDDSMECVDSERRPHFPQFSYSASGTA
# Description: A GST-fusion protein of PHLPP-1α-PP2C was expressed in BL21 (DE3) and purified using glutathione-Sepharose. The GST-PP2C proteins were eluted from the beads in PBS containing 10 mM glutathione and 1 mM DTT, and dialyzed against 50 mM Tris (pH 7.4) and 1 mM DTT. His-tagged Akt was expressed and purified from baculovirus-infected Sf21 cells. Briefly, Sf21 cells were maintained in SF-900 II media (Invitrogen) and infected with baculovirus encoding His-Akt for 3 days. To obtain maximally phosphorylated Akt as substrate, the infected cells were treated with 10% FBS and calyculin A (100 nM) for 15 minutes prior to lysis. The infected cells were lysed in PBS containing 1% Triton X-100 and 10 mM imidazole, and His-Akt proteins were purified using Ni-NTA beads (Qiagen). The dephosphorylation reactions were carried out in a reaction buffer containing 50 mM Tris (pH 7.4), 1 mM DTT and 5 mM MnCl2 at 30° C. for 0-30 minutes.
# GST-PP2C was expressed in BL21 bacterial cells; phosphatase assays were performed using the purified GST-PP2C construct conjugated to glutathione-sepharose and pure Akt as a substrate as described above. The activity of full length HA-PHLPP2 was assessed by expressing and immunoprecipitating PHLPP2 from 293T or H157 cell lysates. Cells were lysed in Buffer 2 (20 mM HEPES, pH 7.4, 1% Triton X-100, 1 mM DTT, 200 mM benzamidine, […] leupeptin, and 1 mM PMSF). […]
# [2] = system: Akt; assay: Akt phosphorylation in cells overexpressing HA-PHLPP2 (Western blot); format: cell-based
# Description: (§1) ZR-75-1 cell lines were maintained in RPMI 1640 (Cellgro), and all other cell lines were maintained in DMEM (Celigro); both media were supplemented with 10% FBS and 1% penicillin/streptomycin. Cells were maintained at 37° C. in 5% CO2. Transient transfections and siRNA experiments were performed as previously described (6), except for ZR-75-1 cells, which were transfected using FuGENE reagent (Roche). For immunoblotting, transfected cells were lysed in Buffer 1 (50 mM Na2HPO4, pH 7.5, 1 mM sodium pyrophosphate, 20 mM NaF, 2 mM EDTA, 2 mM EGTA, 1% SDS, 1 mM DTT, 200 mM benzamidine, […] leupeptin, and 1 mM PMSF) and sonicated for 5 seconds. Lysates containing equal protein were analyzed on SDS-PAGE gels, and individual blots were probed using each antibody. Densitometric analysis was performed with the NIH Image analysis software (version 1.63).
# [3] = system: Akt; assay: in vitro kinase assay of Akt immunoprecipitated from 293T cells overexpressing PHLPP2; format: cell-based
# Description: H157 cells transfected with vector or HA-PHLPP were lysed in buffer A. The detergent-solubilized cell lysates were incubated with an anti-Akt monoclonal antibody (5G3) and Ultra-link protein A/G beads (Pierce) at 4° C. overnight. Beads were washed three times in buffer A and twice in buffer B (25 mM Tris, pH 7.4, 10 mM MgCl2 and 1 mM DTT). In vitro kinase assays were carried out by incubating immunoprecipitated Akt in buffer containing 25 mM Tris, pH 7.4, 10 mM MgCl2 and 1 mM DTT, 200 μM ATP, 6 μM Crosstide (Upstate Biotechnology) and ^32Pγ-ATP at 30° C. for 30 minutes. Each reaction was performed in duplicate. The reactions were spotted onto P81 filter paper (Whatman), and radioactivity incorporated into the peptide was measured using a scintillation counter.
# Akt was immunoprecipitated from cell lysates using Akt agarose (Upstate Biotechnologies) and kinase reactions were performed using an Akt kinase assay kit (Cell Signaling) as described previously in Example 5.
# [4] = system: Bt-474 cells; assay: apoptosis assay, sub-2N DNA by flow cytometry; format: cell-based; details: from 2.0+0.2 without PHLPP2
# Description: (§2) Apoptosis assays were performed as described previously (Brognard et al., 2001). Briefly, cells were transfected with different PHLPP expression constructs or siRNAs. In the case of gating for transfected cells, a GFP expression construct was co-transfected into the cells. Approximately 24 hours post-transfection, the cells were switched to low serum medium (DMEM plus 0.1% FBS) and allowed to grow for an additional 48 hours. For LY294002 (25 μM) treatment, the drug was added at the time when the cells were switched into the low serum medium. The cells were collected and stained with propidium iodide (25 μg/ml). Apoptotic cells were defined as sub-2N DNA containing cells. Quantification of apoptosis was obtained using flow cytometry analysis with a Becton Dickinson FACSort.
# (§3) Apoptotic assays were performed as described above. To determine G1/S ratios, cells were co-transfected with GFP and HA-PHLPP2 and incubated under high serum (10% FBS) conditions for 48 hrs and cells were gated based on GFP expression as described above. For BrdU incorporation assays, cells were transfected with 100 nM siRNA (si-1) and incubated for 48 hrs prior to performing assay following manufacturers protocol (Oncogene Research Products).
# [5] = system: H157 cells; assay: apoptosis assay, sub-2N DNA by flow cytometry; format: cell-based; details: serum deprivation; vector-transfected cells 3.1±0.1%
# Description: as §2, §3
# [6] = system: MDA-MB-231 cells; assay: apoptosis assay, sub-2N DNA by flow cytometry; format: cell-based; details: from 2.9+0.9 without PHLPP2
# Description: as §2, §3
# [7] = system: 293T cells; assay: G1/S ratio by flow cytometry, PHLPP2 expression; format: cell-based; details: high serum (10% FBS), 48 hrs
# Description: as §3
# [8] = system: H157 cells; assay: G1/S ratio by flow cytometry, PHLPP2 expression; format: cell-based; details: high serum (10% FBS), 48 hrs
# Description: as §3
# [9] = system: PKC, p90RSK, or p70S6K; assay: phosphorylation of the hydrophobic motif in other AGC family kinases on PHLPP2 expression (Western blot); format: cell-based; details: 293T and H157 cells
# Description: as §1
# [10] = system: MEK 1/2 or ERK 1/2; assay: MAPK signaling pathway on PHLPP2 expression (Western blot); format: cell-based; details: untreated cells
# Description: as §1
molecule,measurement,setting,value
B1,dephosphorylation of Ser 473,[1],60+4%
same,effect on Thr 308 phosphorylation,[1],no significant effect
same,decrease in phosphorylation at Ser 473,[2]; Bt-474 cell line,approximately 80%
same,decrease in phosphorylation at Ser 473,[2]; MDA-MB-231 cell line,~70%
same,effects on the phosphorylation of Thr 308,[2]; overexpression in 293T and H157 cells,minimal effects
same,reduction in phosphorylation at Ser 473,[2]; overexpression in 293T cells,76±3%
same,reduction in phosphorylation at Ser 473,[2]; overexpression in H157 cells,72+8%
same,reduction in Ser 473 phosphorylation of immunoprecipitated Akt,"[3]; 293T cells overexpressing PHLPP2, compared to vector-transfected cells",70%
same,reduction in substrate phosphorylation (GSK-3 fusion protein),[3]; Akt from 293T cells overexpressing PHLPP2,80%
same,apoptosis (sub-2N-DNA content),[4],15.8+0.6 relative units
same,relative sub-2N DNA (apoptosis),[5],28±5%
same,apoptosis (sub-2N-DNA content),[6],11.5+3.6 relative units
same,increase in the G1/S ratio,[7],approximately 3 fold
same,increase in the G1/S ratio,[8],approximately 2 fold
same,"effect on the phosphorylation of the hydrophobic motif in PKC, p90RSK, or p70S6K",[9],no significant effect
same,phosphorylation of MEK 1/2 or ERK 1/2,[10],did not alter
